# ± gives the standard deviation of the averaged measurements.
# Assay: total protein half-life in vivo (active degradation + dilution); higher = more stable protein
# [1] = E. coli NCM3722 delta-clpP delta-lon delta-hslV, growth: N-lim chemostat, doubling time 6 h
# [2] = E. coli NCM3722 delta-clpP, growth: N-lim chemostat, doubling time 6 h
# [3] = E. coli NCM3722 delta-lon, growth: N-lim chemostat, doubling time 6 h
# [4] = E. coli NCM3722 delta-smpB, growth: N-lim chemostat, doubling time 6 h
# [5] = wild type E. coli NCM3722, growth: C-lim chemostat, doubling time 6 h
# [6] = wild type E. coli NCM3722, growth: C-lim chemostat, doubling time 12 h
# [7] = wild type E. coli NCM3722, growth: N-lim chemostat, doubling time 6 h
# [8] = wild type E. coli NCM3722, growth: N-lim chemostat, doubling time 12 h
# [9] = wild type E. coli NCM3722, growth: P-lim chemostat, doubling time 6 h
# [10] = wild type E. coli NCM3722, growth: P-lim chemostat, doubling time 12 h
# [11] = E. coli NCM3722 delta-hslV, growth: N-lim chemostat, doubling time 6 h
# [12] = wild type E. coli NCM3722, growth: C-lim chemostat, doubling time 3 h
sequence,measurement,setting,value
MQKLKQQVFEANMELPRYGLVTFTWGNVSAIDRERGLVVIKPSGVAYETMKAADMVVVDMSGKVVEGEYRPSSDTATHLELYRRYPSLGGIVHTHSTHATAWAQAGLAIPALGTTHADYFFGDIPCTRGLSEEEVQGEYELNTGKVIIETLGNAEPLHTPGIVVYQHGPFAWGKDAHDAVHNAVVMEEVAKMAWIARGINPQLNHIDSFLMNKHFMRKHGPNAYYGQK,total protein half-life in vivo,[1],4.02 ± 1.1 h
MQKRAIYPGTFDPITNGHIDIVTRATQMFDHVILAIAASPSKKPMFTLEERVALAQQATAHLGNVEVVGFSDLMANFARNQHATVLIRGLRAVADFEYEMQLAHMNRHLMPELESVFLMPSKEWSFISSSLVKEVARHQGDVTHFLPENVHQALMAKLA [P0A6I6],total protein half-life in vivo,[1],4.49 h
same,total protein half-life in vivo,[2],5.11 ± 0.59 h
same,total protein half-life in vivo,[3],5.58 h
same,total protein half-life in vivo,[4],4.82 ± 1 h
same,total protein half-life in vivo,[5],6.01 ± 0.25 h
same,total protein half-life in vivo,[6],10.8 h
same,total protein half-life in vivo,[7],4.62 h
same,total protein half-life in vivo,[8],7.33 ± 0.35 h
same,total protein half-life in vivo,[9],6.14 ± 0.072 h
same,total protein half-life in vivo,[10],12.9 ± 1 h
MQKVVLATGNVGKVRELASLLSDFGLDIVAQTDLGVDSAEETGLTFIENAILKARHAAKVTALPAIADDSGLAVDVLGGAPGIYSARYSGEDATDQKNLQKLLETMKDVPDDQRQARFHCVLVYLRHAEDPTPLVCHGSWPGVITREPAGTGGFGYDPIFFVPSEGKTAAELTREEKSAISHRGQALKLLLDALRNG,total protein half-life in vivo,[1],4.93 ± 0.34 h
same,total protein half-life in vivo,[2],4.228 ± 0.016 h
same,total protein half-life in vivo,[11],4.12 ± 0.13 h
same,total protein half-life in vivo,[3],4.93 ± 0.076 h
same,total protein half-life in vivo,[4],3.951 ± 0.0058 h
same,total protein half-life in vivo,[12],3.16 ± 0.17 h
same,total protein half-life in vivo,[5],5.1 ± 0.19 h
same,total protein half-life in vivo,[6],8.51 ± 0.84 h
same,total protein half-life in vivo,[7],4 ± 0.17 h
same,total protein half-life in vivo,[8],6.87 ± 0.21 h
same,total protein half-life in vivo,[9],5.14 ± 0.35 h
same,total protein half-life in vivo,[10],10.7 ± 0.027 h
MQKYISEARLLLALAIPVILAQIAQTAMGFVDTVMAGGYSATDMAAVAIGTSIWLPAILFGHGLLLALTPVIAQLNGSGRRERIAHQVRQGFWLAGFVSVLIMLVLWNAGYIIRSMENIDPALADKAVGYLRALLWGAPGYLFFQVARNQCEGLAKTKPGMVMGFIGLLVNIPVNYIFIYGHFGMPELGGVGCGVATAAVYWVMFLAMVSYIKRARSMRDIRNEKGTAKPDPAVMKRLIQLGLPIALALFFEVTLFAVVALLVSPLGIVDVAGHQIALNFSSLMFVLPMSLAAAVTIRVGYRLGQGSTLDAQTAARTGLMVGVCMATLTAIFTVSLREQIALLYNDNPEVVTLAAHLMLLAAVYQISDSIQVIGSGILRGYKDTRSIFYITFTAYWVLGLPSGYILALTDLVVEPMGPAGFWIGFIIGLTSAAIMMMLRMRFLQRLPSAIILQRASR,total protein half-life in vivo,[1],5.68 ± 0.19 h
same,total protein half-life in vivo,[2],6.61 h
same,total protein half-life in vivo,[3],4.97 ± 0.54 h
same,total protein half-life in vivo,[4],5.45 ± 0.68 h
same,total protein half-life in vivo,[12],3.6 h
same,total protein half-life in vivo,[6],> 16 h
same,total protein half-life in vivo,[7],6.87 ± 0.42 h
same,total protein half-life in vivo,[8],12 ± 0.72 h
same,total protein half-life in vivo,[9],5.52 ± 0.6 h
same,total protein half-life in vivo,[10],12.7 ± 0.75 h
MQLNKVLKGLMIALPVMAIAACSSNKNASNDGSEGMLGAGTGMDANGGNGNMSSEEQARLQMQQLQQNNIVYFDLDKYDIRSDFAQMLDAHANFLRSNPSYKVTVEGHADERGTPEYNISLGERRANAVKMYLQGKGVSADQISIVSYGKEKPAVLGHDEAAYSKNRRAVLVY [P0A912],total protein half-life in vivo,[1],6.43 ± 0.059 h
same,total protein half-life in vivo,[2],6.28 ± 0.35 h
same,total protein half-life in vivo,[11],6.46 ± 0.39 h
same,total protein half-life in vivo,[3],6.35 ± 0.55 h
same,total protein half-life in vivo,[4],5.44 ± 0.29 h
same,total protein half-life in vivo,[12],3.09 ± 0.057 h
same,total protein half-life in vivo,[5],5.6 ± 0.32 h
same,total protein half-life in vivo,[6],10.7 ± 1.1 h
same,total protein half-life in vivo,[7],6.17 ± 0.19 h
same,total protein half-life in vivo,[8],12.6 ± 0.94 h
same,total protein half-life in vivo,[9],5.9 ± 0.72 h
same,total protein half-life in vivo,[10],11.3 ± 1.8 h
MQLTSFTDYGLRALIYMASLPEGRMTSISEVTDVYGVSRNHMVKIINQLSRAGYVTAVRGKNGGIRLGKPASAIRIGDVVRELEPLSLVNCSSEFCHITPACRLKQALSKAVQSFLTELDNYTLADLVEENQPLYKLLLVE [P0AF63],total protein half-life in vivo,[1],7.13 ± 1.1 h
same,total protein half-life in vivo,[2],6.69 ± 0.15 h
same,total protein half-life in vivo,[11],5.44 ± 0.07 h
same,total protein half-life in vivo,[3],5.26 ± 0.19 h
same,total protein half-life in vivo,[4],5.26 ± 0.17 h
same,total protein half-life in vivo,[12],2.93 ± 0.15 h
same,total protein half-life in vivo,[5],6.31 ± 1.1 h
same,total protein half-life in vivo,[6],8.91 ± 0.3 h
same,total protein half-life in vivo,[7],5.12 ± 0.58 h
same,total protein half-life in vivo,[8],10.2 ± 0.44 h
same,total protein half-life in vivo,[9],4.03 ± 0.2 h
same,total protein half-life in vivo,[10],6.22 ± 0.65 h
MQNRLTIKDIARLSGVGKSTVSRVLNNESGVSQLTRERVEAVMNQHGFSPSRSARAMRGQSDKVVAIIVTRLDSLSENLAVQTMLPAFYEQGYDPIMMESQFSPQLVAEHLGVLKRRNIDGVVLFGFTGITEEMLAHWQSSLVLLARDAKGFASVCYDDEGAIKILMQRLYDQGHRNISYLGVPHSDVTTGKRRHEAYLAFCKAHKLHPVAALPGLAMKQGYENVAKVITPETTALLCATDTLALGASKYLQEQRIDTLQLASVGNTPLMKFLHPEIVTVDPGYAEAGRQAACQLIAQVTGRSEPQQIIIPATLS,total protein half-life in vivo,[1],5.44 ± 0.36 h
same,total protein half-life in vivo,[2],5.57 h
same,total protein half-life in vivo,[11],5.41 ± 1 h
same,total protein half-life in vivo,[3],5.53 ± 0.32 h
same,total protein half-life in vivo,[4],4.96 ± 0.47 h
same,total protein half-life in vivo,[12],2.888 ± 0.0064 h
same,total protein half-life in vivo,[5],5.6 ± 0.49 h
same,total protein half-life in vivo,[6],12.4 ± 2.4 h
same,total protein half-life in vivo,[7],5.0404 ± 0.0037 h
same,total protein half-life in vivo,[8],10.5 ± 1.1 h
same,total protein half-life in vivo,[9],4.72 ± 0.12 h
same,total protein half-life in vivo,[10],10.2 ± 1.8 h
MQNTTHDNVILELTVRNHPGVMTHVCGLFARRAFNVEGILCLPIQDSDKSHIWLLVNDDQRLEQMISQIDKLEDVVKVQRNQSDPTMFNKIAVFFQ [P0ADF8],total protein half-life in vivo,[1],5.25 ± 2.1 h
same,total protein half-life in vivo,[2],1.6 ± 0.35 h
same,total protein half-life in vivo,[11],1.74 ± 0.22 h
same,total protein half-life in vivo,[3],2.35 h
same,total protein half-life in vivo,[4],1.62 ± 0.038 h
same,total protein half-life in vivo,[12],2.47 ± 0.37 h
same,total protein half-life in vivo,[5],3.63 ± 0.07 h
same,total protein half-life in vivo,[6],4.56 ± 0.67 h
same,total protein half-life in vivo,[7],1.447 ± 0.0047 h
same,total protein half-life in vivo,[8],2.29 ± 0.29 h
same,total protein half-life in vivo,[9],2.71 ± 0.66 h
same,total protein half-life in vivo,[10],5.91 ± 0.75 h

# Source: the supplement of paper PMC11246515
